According to publication PMC7221550, “Membrane Phospholipids and Polyphosphates as Cofactors and Binding Molecules of SERPINA12 (vaspin)” (Molecules, 2020):

Molecular target: Recombinant human kallikrein 7 (KLK7) (human, UniProt P49862 30-253)
Experiment: cell-based or functional assay

Chain of Recombinant human kallikrein 7 (KLK7) (P49862 30-253): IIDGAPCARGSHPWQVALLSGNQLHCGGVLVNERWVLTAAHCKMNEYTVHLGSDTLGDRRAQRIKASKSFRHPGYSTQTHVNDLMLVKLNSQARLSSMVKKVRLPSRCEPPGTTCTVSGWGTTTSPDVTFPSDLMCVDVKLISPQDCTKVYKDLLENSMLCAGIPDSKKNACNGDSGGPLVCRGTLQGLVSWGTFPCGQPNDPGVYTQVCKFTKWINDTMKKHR

second-order rate constant of KLK7 inhibition by vaspin under pseudo-first-order conditions, x-fold over control, with polyP45 (polyP/serpin ratio of 10:1): 5 fold
second-order rate constant of KLK7 inhibition by vaspin under pseudo-first-order conditions, x-fold over control, with unfractionated heparin (ligand/serpin ratio of 10): 5 fold
B1: Recombinant human vaspin wild type (visceral adipose tissue derived serine protease inhibitor, SERPINA12) (natural protein)
chain: KPSFSPRNYKALSEVQGWKQRMAAKELARQNMDLGFKLLKKLAFYNPGRNIFLSPLSISTAFSMLCLGAQDSTLDEIKQGFNFRKMPEKDLHEGFHYIIHELTQKTQDLKLSIGNTLFIDQRLQPQRKFLEDAKNFYSAETILTNFQNLEMAQKQINDFISQKTHGKINNLIENIDPGTVMLLANYIFFRARWKHEFDPNVTKEEDFFLEKNSSVKVPMMFRSGIYQVGYDDKLSCTILEIPYQKNITAIFILPDEGKLKHLEKGLQVDTFSRWKTLLSRRVVDVSVPRLHMTGTFDLKKTLSYIGVSKIFEEHGDLTKIAPHRSLKVGEAVHKAELKMDERGTEGAAGTGAQTLPMETPLVVKIDKPYLLLIYSEKIPSVLFLGKIVNPIGK
